Experimental data published in paper PMC10148881, “Recognition of an Ala-rich C-degron by the E3 ligase Pirh2” (Nature Communications, 2023).

Target: Ala6/C-degron peptide (sequence: …)
Experiment: ITC

Kd: 40 µM
Substance: WT Pirh2 I110D
